Test results from article PMC5461267, “Membrane Guanylate Cyclase catalytic Subdomain: Structure and Linkage with Calcium Sensors and Bicarbonate” (Frontiers in Molecular Neuroscience, 2017).
Substitutions are numbered along the chain they refer to. In names and notes the source's numbering stands.

B1: ROS-GC1 (rod outer segment guanylate cyclase type 1), full-length recombinant (Bos taurus; A1013R) (protein)
chain: AVFTVGVLGPWACDPIFARARPDLAARLAASRLNHAAALEGGPRFEVALLPEPCRTPGSLGAVSSALTRVSGLVGPVNPAACRPAELLAQEAGVALVPWGCPGTRAAGTTAPVVTPAADALYALLRAFRWAHVALVTAPQDLWVEAGHALSTALRARGLPVALVTSMEPSDLSGAREALRRVQDGPRVRAVIMVMHSVLLGGEEQRCLLEAAEELGLADGSLVFLPFDTLHYALSPGPDALAVLANSSQLRKAHDAVLTLTRHCPLGGSVRDSLRRAQEHRELPLDLNLQQVSPLFGTIYDSVFLLAGGVARARVAAGGGWVSGAAVARHIRDARVPGFCGALGGAEEPSFVLLDTDATGDQLFATYVLDPTQGFFHSAGTPVHFPKGGRGPGPDPSCWFDPDTICNGGVEPSVVFIGFLLVVGMGLAGAFLAHYCRHRLLHIQMVSGPNKIILTLDDITFLHPHGGNSRKVAQGSRTSLAARSISDVRSIHSQLPDYTNIGLYEGDWVWLKKFPGDRHIAIRPATKMAFSKIRELRHENVALYLGLFLAGGAGGPAAPGEGVLAVVSEHCARGSLQDLLAQRDIKLDWMFKSSLLLDLIKGIRYLHHRGVAHGRLKSRNCVVDGRFVLKVTDHGHGRLLEAQRVLPEPPSAEDQLWTAPELLRDPVLERRGTLAGDVFSLGIIMQEVVCRSAPYAMLELTPEEVVKRVQSPPPLCRPSVSIDQAPMECIQLMKQCWAEQPELRPSMDRTFELFKSINKGRKMNIIDSMLRMLEQYSSNLEDLIRERTEELELEKQKTDRLLTQMLPPSVAEALKMGTPVEPEYFEEVTLYFSDIVGFTTISAMSEPIEVVDLLNDLYTLFDAIIGSHDVYKVETIGDAYMVASGLPQRNGHRHAAEIANMALDILSAVGTFRMRHMPEVPVRIRIGLHSGPCVAGVVGLTMPRYCLFGDTVNTASRMESTGLPYRIHVNRSTVQILSALNEGFLTEVRGRTELKGKGAEETYWLVGRRGFNKPIPKPPDLQPGASNHGISLHEIPPDRRQKLEKARPGQFSGK
notes: full-length wild-type cDNA expressed in COS-7 cells; membrane fraction assayed; homodimer
B2: ROS-GC1 (rod outer segment guanylate cyclase type 1), full-length recombinant (Bos taurus; A1013R/R981A) (protein)
chain: B1 chain with R925A
notes: as for B1
B3: ROS-GC1 (rod outer segment guanylate cyclase type 1), full-length recombinant (Bos taurus; A1013R/D890A) (protein)
chain: B1 chain with D834A
notes: as for B1
B4: ROS-GC1 (rod outer segment guanylate cyclase type 1), full-length recombinant (Bos taurus; A1013R/N1009A) (protein)
chain: B1 chain with N953A
notes: as for B1
B5: ROS-GC1 (rod outer segment guanylate cyclase type 1), full-length recombinant (Bos taurus; A1013R/D934A) (protein)
chain: B1 chain with D878A
notes: as for B1
B6: ROS-GC1 (rod outer segment guanylate cyclase type 1), full-length recombinant (Bos taurus; A1013R/C1002A) (protein)
chain: B1 chain with C946A
notes: as for B1
B7: ROS-GC1 (rod outer segment guanylate cyclase type 1), full-length recombinant (Bos taurus; A1013R/E930A) (protein)
chain: B1 chain with E874A
notes: as for B1

What was measured:
[1] = molecular target: T1, CCD/CTE (aa 817-1054) of ROS-GC1 (Bos taurus, UniProt P55203, A1013R); assay: cyclic GMP radioimmunoassay, purified protein; assay type: biochemical; conditions: 1 mM GTP, 4 mM MgCl2, pH 7.5, 37 °C
T1 construct: gene GUCY2D; dimer

[2] = molecular target: T2, ROS-GC1 (rod outer segment guanylate cyclase type 1), full-length recombinant (Bos taurus, UniProt P55203); assay: cyclic GMP radioimmunoassay, COS cell membranes; Hill fit; assay type: biochemical; conditions: constant Mg2+, GTP 0-3 mM, pH 7.5, 37 °C; half-maximal concentration from Hill equation
T2 construct: gene GUCY2D; full-length wild-type cDNA expressed in COS-7 cells; membrane fraction assayed; homodimer
T2 sequence (P55203 57-1110): B1 chain with R957A

[3] = molecular target: T3, CCD (aa fragment 817-965) of ROS-GC1 (Bos taurus, UniProt P55203, A1013R); assay: cyclic GMP radioimmunoassay, purified protein; assay type: biochemical; conditions: 1 mM GTP, 4 mM MgCl2, pH 7.5, 37 °C
T3 construct: gene GUCY2D; homodimer

[4] = substrate: Nc1nc2c(ncn2[C@@H]2O[C@H](COP(=O)(O)OP(=O)(O)OP(=O)(O)O)[C@@H](O)[C@H]2O)c(=O)[nH]1; assay: cyclic GMP radioimmunoassay, COS cell membranes; Hill fit; assay type: biochemical, Bos taurus; conditions: constant Mg2+, GTP 0-3 mM, pH 7.5, 37 °C, half-maximal concentration from Hill equation

Molecule | Km [4] | other results
Nc1nc2c(ncn2[C@@H]2O[C@H](COP(=O)(O)OP(=O)(O)OP(=O)(O)O)[C@@H](O)[C@H]2O)c(=O)[nH]1 [GTP] |  | cyclic GMP radioimmunoassay, purified protein [1]: constructs lacked the TMD, illustrated by the CCD–CTE and CCD; Km [2]: 500 ± 30 µM; cyclic GMP radioimmunoassay, purified protein [3]: The isolated soluble CCD construct contained only a minimal basal specific catalytic activity
B1 | 450 ± 20 µM | 
B2 | 520 ± 30 µM | 
B3 | 560 ± 30 µM | 
B4 | 490 ± 10 µM | 
B5 | 480 ± 40 µM | 
B6 | 640 ± 20 µM | 
B7 | 530 ± 30 µM | 
